Data published in patent US20020015966A1, “Effector-specific protein assembly and uses thereof” (priority 2000, published 2002).

What was measured:
[1] = biological target: T1, TR 204-461 (Homo sapiens, UniProt P10828); test: protease digestion assay (trypsin) of TR LBD; assay type: biochemical; settings: in the absence of ligand; 1 mM peptide, trypsin 7 minutes at room temperature
T1 construct: Flag (N); made in house; host or cells: in vitro translation
T1 sequence (P10828 204-461): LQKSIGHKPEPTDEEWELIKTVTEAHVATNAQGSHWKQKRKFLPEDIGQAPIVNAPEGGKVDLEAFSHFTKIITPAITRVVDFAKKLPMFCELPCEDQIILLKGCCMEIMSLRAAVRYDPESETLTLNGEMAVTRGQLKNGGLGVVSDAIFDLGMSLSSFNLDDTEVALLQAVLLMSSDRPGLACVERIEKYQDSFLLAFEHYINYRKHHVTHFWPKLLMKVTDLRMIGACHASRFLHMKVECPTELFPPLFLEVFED
Experimental: The mixture was digested with trypsin for 7 minutes at room temperature and analyzed by SDS-PAGE.
Subsequently, wild-type or mutated N-CoR peptides were added to final concentrations of 1 mM, and the reaction mixtures was further incubated for 30 minutes on ice. BSA was added to the reactions with no peptides to supplement for equal protein concentration in all the reaction mixtures. Finally, […] of trypsin was added to the indicated tubes, and the protein digestion was performed at room temperature for 7 minutes. The reactions were stopped with the addition of SDS-sample buffer and boiling. The samples were run on a 15% SDS-gel that was then dried and exposed to film for 1 hour.

[2] = biological target: T2, GST-TR hinge fusion / TR LBD (Homo sapiens, UniProt P10828); test: GST pulldown assay of GST-TR204-260 with in vitro translated TR236-461; assay type: binding; settings: peptide 10 and 100 μM
T2 construct: GST pulldown assay of GST-TR204-260 with in vitro translated TR236-461; made in house; host or cells: The GST fusion was made in E. coli BL21; The LBD fragment was translated in vitro
T2 sequence (P10828 236-461): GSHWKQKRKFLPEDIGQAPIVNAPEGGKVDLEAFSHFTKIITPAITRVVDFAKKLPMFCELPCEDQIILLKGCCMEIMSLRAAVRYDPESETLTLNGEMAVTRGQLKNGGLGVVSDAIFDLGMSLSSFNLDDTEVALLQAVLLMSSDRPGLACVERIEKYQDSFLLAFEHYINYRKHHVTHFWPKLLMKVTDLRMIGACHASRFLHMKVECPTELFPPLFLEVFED
T2 sequence (P10828 204-260 partner limits assumed): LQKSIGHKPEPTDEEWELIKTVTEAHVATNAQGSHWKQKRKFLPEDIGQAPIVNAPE
Text: FIGS. 5A and 5B illustrate that N-CoR enhances the hinge-LBD interaction in the absence of ligand. In FIG. 5A, HepG2 cells were cotransfected with Gal4-hinge and VP16-LBD fusions of TR (left panel), RAR (middle panel), or RXR (right panel) in the presence or absence of Gal-RIP13ΔN4 construct and treated with the corresponding ligands or vehicle alone. […] Wt and mutant peptides of N-CoR IDI (top and bottom panels, respectively) were included where indicated at concentrations of 10 (+) and 100 (++) μM.
The appropriate GST fusion constructs were induced with […] and coupled to glutathione beads (Sepharose, Pharmacia). Interactions were performed overnight at 4° C. in buffer containing 20 mM Hepes pH 7.6, 100 mM NaCl, 20% glycerol, 2 mg/ml BSA, 1 mM DTT, and various protease inhibitors. The beads were subsequently washed twice with the interaction buffer containing 0.05% Triton X-100 and once with 50 mM Tris-HCl pH 8. Ligands or peptides were included in the washes where appropriate. The bound proteins were eluted with 15 mM glutathione (Sigma) for 15 minutes at 37° C. and analyzed by SDS-PAGE and fluorography (Amplify, Amersham). The sequence of the N-CoR RID peptide was […].

[3] = test system: ER-α; test: mammalian two-hybrid assay of ER-α helix 1-LBD interaction; assay type: cell-based; settings: HepG2 cells, G5E1B-Luc reporter
Text: Shown are mammalian two-hybrid assays of Gal fusions containing helix 1 of ER-α with VP16 fusions of the ER LBD containing or lacking helix 1. HepG2 cells were cotransfected with G5E1B-Luc reporter, the appropriate combination of the expression vectors, and a ligand or vehicle. “E2” denotes estradiol; “4HT” denotes 4-hydroxy tamoxifen; and “ICI” denotes ICI-172,780.
HepG2 cells were maintained in Dulbecco's modified Eagle medium supplemented with 10% fetal calf serum. For transfection the cells were plated the day before into 24-well dishes at density 10^5 cells/well in DMEM supplemented with 10% charcoal-stripped serum. Transfections were performed by the calcium phosphate co-precipitation method. […] The amount of DNA was adjusted to 500 ng total per well with pBluescript vector.
The cells were washed with PBS the next morning and fresh media containing the appropriate ligands was added. The cells were harvested 24 hours later and assayed for luciferase (Molecular Probes) and β-Galactosidase activity (Tropix) on an MLX luminometer. All experiments were performed at least twice in duplicate.

| stabilization of TR LBD fragment against trypsin digestion [1] | interaction between a GST-TR hinge fusion and the TR LBD ([2]; in the absence of ligand) | interaction between a GST-TR hinge fusion and the TR LBD ([2]; in the presence of ligand) | Substance | new protease resistant species with a lower molecular weight [1] | hinge-LBD interaction of ER-α [3] |
| --- | --- | --- | --- | --- | --- |
| some apparent stabilization | strongly stimulated | did not affect | ASNLGEDIIKALMGSFDD [wild type NCoR RID I peptide] | presence of a new protease resistant species |  |
|  |  |  | 4-hydroxy tamoxifen |  | stronger effect |
